Starred links: 1 amine or outer side, 2 acyl side, 3 side chain; linkers in the order of their positions; H or OH if unused. Positions of bridges follow the written chain, without caps; N, C: chain ends. Non-standard residues stand in square brackets, D forms with d. Primed or numbered codes have the meaning given here. PyrS2″ = (S)-3-amino-1-((pent-4-en-1-yloxy)carbonyl)pyrrolidine-3-carboxylic acid (stapling residue), C=CCCCOC(=O)N1CC[C@@](N[*:1])(C(=O)[*:2])C1; SeN″ = (S)-5-(((allyloxy)carbonyl)(methyl)amino)-2-amino-2-methylpentanoic acid (stapling residue), C=CCOC(=O)N(C)CCC[C@](C)(N[*:1])C(=O)[*:2]; B5(4) = 2,2-bis(4-pentenyl)glycine = 2-amino-2-(pent-4-en-1-yl)hept-6-enoic acid (stitching residue), C=CCCCC(CCCC=C)(N[*:1])C(=O)[*:2]; B5(5) = 2,2-bis(4-pentenyl)glycine, 2-amino-2-(pent-4-en-1-yl)hept-6-enoic acid (stitching residue), C=CCCCC(CCCC=C)(N[*:1])C(=O)[*:2]; B5 = 2-amino-2-(pent-4-en-1-yl)hept-6-enoic acid, C=CCCCC(CCCC=C)(N[*:1])C(=O)[*:2]; B5(28) = 2,2-bis(4-pentenyl)glycine, C=CCCCC(CCCC=C)(N[*:1])C(=O)[*:2]; Phe(3-CF3) = N[C@@H](Cc1cccc(C(F)(F)F)c1)C(=O)O; Phe(4-CF3) = N[C@@H](Cc1ccc(C(F)(F)F)cc1)C(=O)O; Phe(3-COOH) = N[C@@H](Cc1cccc(C(=O)O)c1)C(=O)O; 2F3MeF = Cc1cccc(C[C@H](N[*:1])C(=O)[*:2])c1F; S7 = C[C@@](CCCCCC=[*:3])(N[*:1])C(=O)[*:2]; Phe(3-F) = N[C@@H](Cc1cccc(F)c1)C(=O)O; Bta = N[C@@H](Cc1csc2ccccc12)C(=O)O; αAllylPro = C=CC[C@@]1(C(=O)O)CCCN1; tBuAla = CC(C)(C)C[C@H](N)C(=O)O; S8 = C=CCCCCCC[C@](C)(N)C(=O)O; Aib = CC(C)(N)C(=O)O
B1: I-125 (peptide)
peptide: XDAXDNAAFVXFWQ
modifications: not fully specified; as printed: Ac-PL3-Asp-Ala-B5-Asp-Asn-Ala-Ala-Phe-Val-S8-Phe-Trp-Gln-NH2; staples PL3(1)-B5(4) and B5(4)-S8(11)
notes: Stitched (two-staple) peptide composition
B2: I-127 (peptide)
peptide: Ac-[αAllylPro]DA[B5(5)]DQAAFV[S8]FWQ-NH2
modifications: staple 1-4, 4-11
notes: as for B1
B3: I-217 (peptide)
peptide: Ac-[αAllylPro]DA[B5(4)]DEAAXV[S8]FWQ-NH2
modifications: staple 1-4, 4-11; not fully specified (residue 9); printed as Ac-PL3-Asp-Ala-B5-Asp-Glu-Ala-Ala-MeTyr-Val-S8-Phe-Trp-Gln-NH2
notes: Stapled peptide composition; also called Ac-PL3-Asp-Ala-B5-Asp-Glu-Ala-Ala-MeTyr-Val-S8-Phe-Trp-Gln-NH2
B4: I-131 (peptide)
peptide: Ac-[αAllylPro]DA[B5(4)]DEAAFV[SeN″]FWQ-NH2
modifications: staple 1-4, 4-11
notes: Stitched (two-staple) peptide composition; same description as I-130, separate later-eluting HPLC peak (staple isomer)
B5: I-134 (peptide)
peptide: Ac-[αAllylPro]DA[B5(28)]DEAAFV[S8]FW[Aib]-NH2
modifications: staple 1-4, 4-11
notes: as for B1
B6: I-132 (peptide)
peptide: Ac-[αAllylPro]DA[B5(4)]DEAAFV[S7]FWQ-NH2
modifications: staple 1-4, 4-11
notes: as for B1
B7: I-218 (peptide)
peptide: Ac-[αAllylPro]DA[B5(4)]DEAAXV[S8]FWQ-NH2
modifications: staple 1-4, 4-11; not fully specified (residue 9); printed as Ac-PL3-Asp-Ala-B5-Asp-Glu-Ala-Ala-MeTyr-Val-S8-Phe-Trp-Gln-NH2
notes: as for B3
B8: I-254: Ac-PL3-Asp-Ala-B5-Asp-Asp-Ala-Ala-Phe-Val-S8-4F3MeF-Trp-Gln-NH2 (peptide)
peptide: XDAXDDAAFVXFWQ
modifications: not fully specified; N-terminal Ac; PL3 at position 1; B5 at position 4; S8 at position 11; 4F3MeF at position 12; C-terminal NH2; stapled by olefin metathesis (PL3-B5 and B5-S8)
notes: These are separate isomer compositions
B9: I-251 (peptide)
peptide: Ac-[αAllylPro]DA[B5]DDAAFV[S8][Phe(3-CF3)]WQ-NH2
modifications: staple 1-4, 4-11
notes: Stapled peptide composition; also called Ac-PL3-Asp-Ala-B5-Asp-Asp-Ala-Ala-Phe-Val-S8-3F3MeF-Trp-Gln-NH2
B10: I-255 (peptide)
peptide: Ac-[αAllylPro]DA[B5(4)]DDAAFV[S8][Phe(4-CF3)]WQ-NH2
modifications: staple 1-4, 4-11
notes: Stapled peptide composition; also called Ac-PL3-Asp-Ala-B5-Asp-Asp-Ala-Ala-Phe-Val-S8-4F3MeF-Trp-Gln-NH2
B11: I-250 (peptide)
peptide: Ac-[αAllylPro]DA[B5]DDAAFV[S8][Phe(3-CF3)]WQ-NH2
modifications: staple 1-4, 4-11
notes: as for B9

Tests used:
[1] = target: T1, full-length beta-Catenin (Uniprot ID P35222) (Homo sapiens (Human), UniProt P35222 2-781); assay: Alphascreen competition; biotin-TCF4(10-53) probe with full-length beta-catenin
T1 construct: also called B-Catenin; bCat
T1 sequence: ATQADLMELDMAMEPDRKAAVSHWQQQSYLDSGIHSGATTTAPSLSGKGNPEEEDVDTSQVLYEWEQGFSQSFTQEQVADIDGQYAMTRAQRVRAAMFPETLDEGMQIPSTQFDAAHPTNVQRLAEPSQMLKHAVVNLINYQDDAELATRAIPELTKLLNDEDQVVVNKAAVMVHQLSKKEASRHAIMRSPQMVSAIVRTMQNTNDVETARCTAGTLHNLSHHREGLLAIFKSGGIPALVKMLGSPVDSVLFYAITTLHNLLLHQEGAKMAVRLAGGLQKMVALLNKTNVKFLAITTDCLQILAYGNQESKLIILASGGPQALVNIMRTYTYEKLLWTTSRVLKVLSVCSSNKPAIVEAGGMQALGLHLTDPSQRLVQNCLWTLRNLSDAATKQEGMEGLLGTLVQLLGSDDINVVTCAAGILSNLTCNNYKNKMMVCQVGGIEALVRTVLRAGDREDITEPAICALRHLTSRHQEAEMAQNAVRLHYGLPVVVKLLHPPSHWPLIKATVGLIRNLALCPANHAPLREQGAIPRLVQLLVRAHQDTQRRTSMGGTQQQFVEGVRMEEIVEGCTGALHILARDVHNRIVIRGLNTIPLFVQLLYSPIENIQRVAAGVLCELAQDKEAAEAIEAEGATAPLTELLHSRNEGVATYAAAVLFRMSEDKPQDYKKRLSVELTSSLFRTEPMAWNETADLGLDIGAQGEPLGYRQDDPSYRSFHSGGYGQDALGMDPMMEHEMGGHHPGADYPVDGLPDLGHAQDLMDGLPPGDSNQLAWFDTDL
Method: (§1) Equal volume of the titrated peptide was added to the plate and incubated for 15 minutes at 20° C. Then 4 uL of donor and 4 uL acceptor beads at 10 ug/mL were added to the plate, for a 16 uL reaction pool and protected from light for 60 minutes at 20° C. prior to read. Reads were performed on a CLARIOstar plate reader (BMG Labtech) in duplicate, and data were fitted to a 1:1 binding model with hill slope using an in-house script. All provided concentrations are final concentrations.

[2] = target: T1, full-length beta-Catenin (Uniprot ID …); assay: fluorescence polarization competition; 5FAM-TCF4(10-53) probe with full-length beta-catenin
Method: (§2) The plate was incubated protected from light for 60 minutes at 20° C. prior to read. Reads were performed on a CLARIOstar plate reader (BMG Labtech) in duplicate, and data were fitted to a 1:1 binding model with hill slope using an in-house script. All provided concentrations are final concentrations.

[3] = target: T2, full-length beta-Catenin (Uniprot ID P35222) (Homo sapiens (Human), UniProt P35222 2-781); assay: AlphaScreen competition: full-length beta-catenin + biotin-TCF4(10-53) probe, peptide titrated
T2 construct: The AlphaScreen assay used a Histidine (Nickel Chelate) detection kit, so a His tag is likely, but no tag is described; also called B-Catenin; bCat
T2 sequence: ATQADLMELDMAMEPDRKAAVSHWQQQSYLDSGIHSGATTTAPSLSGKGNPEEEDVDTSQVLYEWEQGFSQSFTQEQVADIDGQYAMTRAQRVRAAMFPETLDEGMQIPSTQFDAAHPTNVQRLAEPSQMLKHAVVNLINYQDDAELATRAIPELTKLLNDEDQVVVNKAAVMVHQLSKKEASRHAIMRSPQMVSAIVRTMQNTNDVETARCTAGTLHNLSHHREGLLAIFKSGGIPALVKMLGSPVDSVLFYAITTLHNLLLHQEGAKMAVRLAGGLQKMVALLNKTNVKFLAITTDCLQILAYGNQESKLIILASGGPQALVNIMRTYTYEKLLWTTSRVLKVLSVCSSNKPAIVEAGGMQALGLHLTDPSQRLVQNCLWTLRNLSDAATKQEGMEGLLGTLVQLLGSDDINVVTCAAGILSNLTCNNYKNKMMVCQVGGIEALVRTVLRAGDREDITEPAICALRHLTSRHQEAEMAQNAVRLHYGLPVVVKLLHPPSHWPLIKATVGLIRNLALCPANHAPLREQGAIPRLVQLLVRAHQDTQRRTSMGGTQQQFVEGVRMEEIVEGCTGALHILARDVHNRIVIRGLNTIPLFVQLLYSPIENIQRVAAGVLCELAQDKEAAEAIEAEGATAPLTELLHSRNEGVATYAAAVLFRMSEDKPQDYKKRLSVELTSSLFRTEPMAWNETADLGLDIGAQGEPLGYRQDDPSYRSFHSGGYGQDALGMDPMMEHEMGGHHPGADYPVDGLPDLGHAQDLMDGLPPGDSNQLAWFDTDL
Method: as §1

[4] = target: T2, full-length beta-Catenin (Uniprot ID …); assay: fluorescence polarization competition: full-length beta-catenin + 5FAM-TCF4(10-53) probe, peptide titrated
Method: as §2

[5] = target: T3, beta-Catenin (full-length, Uniprot ID P35222) (Homo sapiens (Human), UniProt P35222 1-781); assay: fluorescence polarization competition: peptide titrated against 10 nM full-length beta-catenin + 10 nM 5FAM-labeled TCF4 residues 10-53 probe
T3 construct: also called bCat; B-Catenin
T3 sequence: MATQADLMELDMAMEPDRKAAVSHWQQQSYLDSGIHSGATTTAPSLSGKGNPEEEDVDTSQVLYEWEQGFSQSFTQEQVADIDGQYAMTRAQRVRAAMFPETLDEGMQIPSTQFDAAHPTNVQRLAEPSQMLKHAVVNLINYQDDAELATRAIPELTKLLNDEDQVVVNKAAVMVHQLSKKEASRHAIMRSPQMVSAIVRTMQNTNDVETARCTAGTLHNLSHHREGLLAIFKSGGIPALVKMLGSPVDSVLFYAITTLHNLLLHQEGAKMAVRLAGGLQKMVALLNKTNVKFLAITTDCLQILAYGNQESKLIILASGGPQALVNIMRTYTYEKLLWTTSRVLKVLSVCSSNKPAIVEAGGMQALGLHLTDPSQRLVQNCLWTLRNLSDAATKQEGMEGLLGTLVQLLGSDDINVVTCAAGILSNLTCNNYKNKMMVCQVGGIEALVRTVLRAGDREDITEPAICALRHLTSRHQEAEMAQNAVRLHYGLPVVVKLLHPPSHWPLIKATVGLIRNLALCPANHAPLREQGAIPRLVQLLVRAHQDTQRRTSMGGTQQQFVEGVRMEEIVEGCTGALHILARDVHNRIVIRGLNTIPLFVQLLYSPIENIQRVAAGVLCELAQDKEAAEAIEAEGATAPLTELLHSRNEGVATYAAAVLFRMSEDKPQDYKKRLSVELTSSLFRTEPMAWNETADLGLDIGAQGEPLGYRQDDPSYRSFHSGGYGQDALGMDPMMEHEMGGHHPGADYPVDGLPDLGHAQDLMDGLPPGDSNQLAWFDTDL
Method: as §2

[6] = target: T4, beta-catenin in DLD1 TCF/LEF luciferase reporter cells (UniProt P35222 1-781); assay: cell-based or functional assay
T4 sequence (looked up): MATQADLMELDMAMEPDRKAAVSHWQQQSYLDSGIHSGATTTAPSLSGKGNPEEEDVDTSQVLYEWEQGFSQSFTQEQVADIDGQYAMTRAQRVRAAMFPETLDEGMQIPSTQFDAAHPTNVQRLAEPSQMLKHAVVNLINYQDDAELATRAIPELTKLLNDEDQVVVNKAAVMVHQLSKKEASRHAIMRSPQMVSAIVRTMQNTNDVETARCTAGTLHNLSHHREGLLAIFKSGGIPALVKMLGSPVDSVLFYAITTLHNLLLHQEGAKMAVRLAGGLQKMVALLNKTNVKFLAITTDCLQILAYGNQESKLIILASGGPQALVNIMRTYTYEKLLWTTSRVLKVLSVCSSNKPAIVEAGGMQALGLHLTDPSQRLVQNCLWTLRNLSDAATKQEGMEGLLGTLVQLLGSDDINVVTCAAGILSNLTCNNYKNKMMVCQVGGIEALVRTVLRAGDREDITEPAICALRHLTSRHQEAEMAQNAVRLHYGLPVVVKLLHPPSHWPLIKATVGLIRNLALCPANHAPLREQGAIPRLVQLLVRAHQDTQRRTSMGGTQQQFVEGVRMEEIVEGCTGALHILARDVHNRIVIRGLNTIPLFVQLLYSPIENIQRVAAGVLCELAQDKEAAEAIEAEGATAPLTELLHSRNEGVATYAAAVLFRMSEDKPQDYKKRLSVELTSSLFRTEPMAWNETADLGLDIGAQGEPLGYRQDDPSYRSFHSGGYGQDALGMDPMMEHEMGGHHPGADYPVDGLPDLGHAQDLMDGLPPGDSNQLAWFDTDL

Binder	EC50 [1]	EC50 [2]	EC50 [3]	EC50 [4]	also measured
B1	569 nM	3060 nM			
B2	552 nM	4840 nM			
B3			90 nM	1960 nM	
B4	400 nM	2160 nM			
Ac-[αAllylPro]DA[B5(4)]DDAAFV[S8][Phe(3-F)]WQ-NH2 (staple 1-4, 4-11, Stapled peptide) [I-260: Ac-PL3-Asp-Ala-B5-Asp-Asp-Ala-Ala-Phe-Val-S8-3FF-Trp-Gln-NH2]					IC50 [5]: 5000 nM
B5		2700 nM			
B6	5090 nM	5000 nM			
B7			90 nM	1960 nM	
B8					IC50 [5]: 5000 nM
B9			1200 nM	5000 nM	
B10			1960 nM	5000 nM	
B11			1200 nM	5000 nM	
Ac-[αAllylPro]D[tBuAla][B5(5)]D[Phe(3-COOH)]AAFL[PyrS2″][2F3MeF][Bta]QL[dQ]-NH2 (staple 1-4, 4-11) [I-2398]					DLD1 4% Abs IC50 [6]: 1300 nM

Source: patent US20240116985A1 (published 2024)
